The results in this text go back to patent US20170166631A1 (published 2017).

B1: NI-302.12H2 (antibody, V domains shown)
VH: EVQLVQSGGGLVQPGGSLRLSCEASGFTFSNYAMGWVRQAPGKGLEWVSVISGTGGSTYYADSVKGRFTISRDNSMNTLYLQMNSPRADDTAVYYCAKDLRKISGPLYYYGMDVWGQGTTVTVSS
VL: EIVLTQSPGTLSLSPGERATLSCRASQSVSSGYLAWYQQKPGQAPRLLIYGASTRATGIPDRFSGSGSGTDFTLTISRLEPEDFAVYYCQHYGASSYTFGQGTKLEIK
B2: NI-302.4A6 (antibody, V domains shown)
VH: EVQLVESGGGLVQPGGSLRLSCAASGFTFSAYAMSWVRQAPGKGLEWVSTISGSGGSTYYADSVKGRFSISRDNSKNTLYLQMNSLRAEDTAVYFCAKVTTELYGANSYYYYMDVWGKGTTVTVSS
VL: EIVLTQSPGTLSLSPGERATLSCRASQSVVSRYLAWYQQKPGQAPRLLIYGASSRATGIPDRFSGSGSGTDFTLTISRLEPEDFAMYYCQLYGNSQTFGQGTKVEIK
B3: NI-302.8M1 (antibody, V domains shown)
VH: EVQLVQSGAEVKKPGASVKVSCKASGYTFTIYYMHWVRQAPGQGLEWMGGISPSGAHTMYAQNFQGRVTVTRDTSTSTVYMELSSLRSEDTAVYYCARGSTVTNYRPFDYWGQGTLVTVSS
VL: DIQMTQSPSSLSASVGDRVTITCRASQDISNYLAWYQQKPGKVPKLLIFAASTLQSGVPSRFGGSGSGTDFTLTISSLQPEDVATYYCQNYNSGPPPFGPGTKVDIK
B4: NI-302.6N9 (antibody, V domains shown)
VH: EVQLVESGGDLVQPGGSLRLSCVVSGFTFSSYAMTWVRQAPGKGLAWVSTISATGGSTFYTDSVRGRFTISRDNSKNTLYLQMNSLRTDDTAIYYCVKDLFGVDTSYYGMDVWGQGTTVTVSS
VL: EIVLTQSPGTLSLSPGERATLSCRPSQSVSGRYVAWYQQKPGQAPRLLFYAASNRAIGIPDRFSGSGSGTDFTLTISRLEPEDFAVYYCQHYGASSYTFGPGTKVDIK
B5: NI-302.74C11 (antibody, V domains shown)
VH: EVQLVQSGTEVQKPGASVKVSCKASGYSFTGYFLHWVRQAPGQGLEWMGWINPNSGDTNYAEKFRGRIIMTRDTSVSTAHMELSSLRFDDTALYYCTREAPDPGAETDVWGQGTTVTVSS
VL: QSVLTQPPSVSVSPGQTARITCSGDAVPKQYIYWYQQKPGQAPILVIYKDTQRPSGIPERFSGSNSGTTVTLTITGVQADDEGDYYCQSADSSATWVFGGGTKLTVL
B6: NI-302.31F11 (antibody, V domains shown)
VH: EVQLVESGGGLIQPGGSLRLSCAASGFTVSSTYMSWVRQAPGKGLECVSVIFSGADTYYADSVKGRFTVSRDNSKNTLFLQMNSLRVEDTATYYCVRHYYGSDLPSDFWGQGTLVTVSS
VL: DVVMTQSPLSLPVAPGEPASISCRSSQSLLYSNGYNYLDWYLQKPGKPPQLLVYLGSDRASGVPDRFSGSGSGKDFTLNISRVEAEDVGVYYCMQGLQSPWTFGQGTKLEIK
B7: NI-302.7D8 (antibody, V domains shown)
VH: QVQLVQSGSELKKPGASVKVSCKASGYNFNNYAINWLRQAPGQGLEWMGWINTITGHPTYAQGFKGRFVFSLDTSVSTAYLQISSLKPEDTAVYYCARTYSNYGEFDYWGQGTLVTVSS
VL: QSALTQPASVSGSRGQSITISCTGTSSDVGSYNLVSWYQQYPGKAPKLIIHEGSERPSGVSNRFSGSKSGNTASLTISGLQAEDEADYYCCSYAGTTTFVLFGGGTKLTVL
B8: NI-302.15F9 (antibody, V domains shown)
VH: EVQLVESGGGLVTPGGSLRLSCEASGFLFKNSSMNWVRQTPGKGLEWVSSIDTSATNYKYYADSVKGRFTISRDDATNSLYLQMNSLRADDTATYYCARGYYTPRDFDYWGQGTLVTVSS
VL: DVVMTQSPQTLSVSLGQAASISCRSSQSLLYRDNNTYLNWFHQRPGQSPRRLIYRASDRDSGVPDRFSGGGSGTDFTLKISGVEAEDVGTYYCMQGTHWPRTFGQGTKVEIK
B9: NI-302.18A1 (antibody, V domains shown)
VH: QLQLQESGPGLVKPSEALSLTCTVSGGSITTDYYYWGWIRQSPGKGLEWVGTIYFGGATYYNPSLRNRVSISVDTSNTRLSLRLISLSAADTAVYYCARVGYLDRSGLLVGQGTLVTVSS
VL: EIVLTQSPLSVPVTPGEPASISCRSSQSLLHNNGYNYLDWYLKKPGQSPQLLIYLGSTRASGVPDRFSASGSGTDFTLEISRVEAEDVGVYYCMQALQTPPTFGRGTKVEIK
B10: NI-302.52C9 (antibody, V domains shown)
VH: EVQLVQSGGGLVQPGGSLRLSCAGSGFTVSDTYMSWVRQAPGKGLEWVSGIHAGGETYYADSVKGRFTISRDNSKNTLYLQMNRLTPEDTAVFYCARHYYGNDDDTDYWGQGTLVTVSS
VL: DVVMTQSPLSLPVTPGEPASISCRSSQSLLHSNGYNYLDWYVQKPGQSPQLLIYLGSTRASGVPDRFSGSGSGTDFTLKISRVEAEDVGVYYCLQAQQIPWTFGQGTKVEIK
B11: NI-302.8F1 (antibody, V domains shown)
VH: EVQLVESGGGLVKPGGSLTISCAASGFTFSNAWMNWVRQAPGKGLEWVGHIRTQAEGGTSDYAAPVKGRFTISRDDSKNTLYLQMNSLKTEDTAVYYCIPPPYYYYYGLDVWGQGTTVTVSS
VL: QSALTQPASVSGSPGQSITISCTGASSDVGTYDLVSWYQQHPGKAPKLIIYEVNKRPSGVSYRFSASKSANTASLTISGLQAEDEAEYYCCSYAGYSTVFGGGTKLTVL

For the first assay, the target named is T1, HD49 (huntingtin exon 1 protein with 49 polyQ repeats after cleavage of the GST tag; aggregation reaction) (human, UniProt P42858 1-88).
T1 chain: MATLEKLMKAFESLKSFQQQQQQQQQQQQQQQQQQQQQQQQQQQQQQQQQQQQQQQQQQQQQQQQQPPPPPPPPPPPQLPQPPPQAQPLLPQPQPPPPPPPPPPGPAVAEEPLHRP
The assay can be described thus: ELISA.
Usually EC50 stands for the concentration at which the effect is half-maximal. B1: the EC50 stood at 0.04 nM.
B2 displayed an EC50 of 3 nM.
B3 came in with an EC50 of 0.003 nM.

The target of another assay is T2, GST-HttExon1Q21 (recombinant huntingtin exon 1 protein with 21 polyQ repeats fused to an N-terminal GST tag) (;human, UniProt P08515 1-218 = GST; P42858 1-88). The assay is described as follows: ELISA. A general note: An ELISA detects its analyte on a solid surface through an enzyme-linked reagent.
For B1, the EC50 worked out at 0.04 nM.
In the case of B2, the EC50 worked out at 3 nM.
In the case of B3, the EC50 amounted to 0.002 nM.

The target of another assay is T3, HD21 (huntingtin exon 1 protein with 21 polyQ repeats after cleavage of the GST tag; aggregation reaction) (human, UniProt P42858 1-88).
T3 chain: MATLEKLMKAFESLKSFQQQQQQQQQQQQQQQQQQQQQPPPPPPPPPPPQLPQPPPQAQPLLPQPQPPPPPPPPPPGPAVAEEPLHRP
The assay can be described thus: ELISA.
B4 returned an EC50 of 0.21 nM.
B5 showed an EC50 of 0.5 nM.
On the same count and under the same terms, the figure for B6 is 4.3 nM.

The target of another assay is T1, HD49 (huntingtin exon 1 protein with 49 …). The assay is described as follows: ELISA. The source holds these as a separate data set.
For B4, the 50% effective concentration (EC50) was 0.19 nM.
B5: the EC50 amounted to 0.5 nM.
In turn, B6 displayed an EC50 of 0.6 nM.

A further assay has as its target T2, GST-HttExon1Q21 (recombinant huntingtin …). The assay can be described thus: ELISA. This is another data set of the same source.
Turning to B4, the EC50 worked out at 0.24 nM.
B5: the EC50 was 0.5 nM.
With B6, the EC50 is 0.9 nM.

The target in a further assay is T3, HD21 (huntingtin exon 1 protein with 21 …). The assay is described as follows: ELISA. The source holds these as a separate data set.
Take B7: the EC50 was > 100 nM.

Another assay deals with T2, GST-HttExon1Q21 (recombinant huntingtin …). The assay is described as follows: ELISA. This is another data set of the same source.
Turning to B7, the EC50 is 51 nM.

The next assay deals with T4, BSA-coupled synthetic peptide of the P-rich domain sequence of huntingtin exon 1 (coupled to BSA).
T4 peptide: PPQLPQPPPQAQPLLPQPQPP
The assay can be described thus: ELISA.
B6 displayed an EC50 of 0.5 nM.

The next assay has as its target T3, HD21 (huntingtin exon 1 protein with 21 …). The assay can be described thus: ELISA. This is another data set of the same source.
B4: the EC50 was determined as 0.21 nM.
On to B7, for which the EC50 is > 100 nM.
On the same count and under the same terms, with B5 the figure was 0.5 nM; with B6, 4.3 nM; with B8, 35 nM.

The target in another assay is T1, HD49 (huntingtin exon 1 protein with 49 …). The assay can be described thus: ELISA. The source holds these as a separate data set.
The molecule B4 yielded an EC50 of 0.19 nM.
The same measure, in the same setting: the figure for B5 is 0.5 nM; for B1 it is 0.04 nM; for B2 it is 3 nM.
With B6, it took 0.6 nM to reach a half-maximal effect (EC50).
Same read-out and setting: the figure for B3 is 0.003 nM.
Same read-out and setting: the figure for B8 is 6 nM.

A further assay has as its target T2, GST-HttExon1Q21 (recombinant huntingtin …). The assay is described as follows: ELISA. The source holds these as a separate data set.
Target sequence in this assay (P08515 1-218, tags or fused parts left off): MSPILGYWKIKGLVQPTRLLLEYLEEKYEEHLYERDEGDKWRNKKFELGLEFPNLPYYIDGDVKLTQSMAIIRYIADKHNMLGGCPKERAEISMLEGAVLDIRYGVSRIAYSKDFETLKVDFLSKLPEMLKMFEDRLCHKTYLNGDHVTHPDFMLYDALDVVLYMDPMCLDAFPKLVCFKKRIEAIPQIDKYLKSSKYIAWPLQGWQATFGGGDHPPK
Consider B4, for which the EC50 is 0.24 nM.
For B7, the EC50 was 51 nM.
With B5, the EC50 stood at 0.5 nM.
For the molecule B1, the EC50 was determined as 0.04 nM.
Regarding B2, the EC50 was found to be 3 nM.
With B6, the EC50 stood at 0.9 nM.
As for B3, the EC50 is 0.002 nM.
Consider B8, for which the EC50 amounted to 11 nM.

For the next assay, the target named is T3, HD21 (huntingtin exon 1 protein with 21 …). The assay can be described thus: ELISA. The source holds these as a separate data set.
In the case of B9, the midpoint of the response, the EC50, lay at 0.02 nM.
Regarding B10, the midpoint of the response, the EC50, lay at 28 nM.
For B11, the half-maximal effective concentration (EC50) worked out at 1.6 nM.

Another assay addresses T1, HD49 (huntingtin exon 1 protein with 49 …). The assay is described as follows: ELISA. The source holds these as a separate data set.
Consider B9, for which a half-maximal response (EC50) required 0.03 nM.
The molecule B10 displayed an EC50 of 30 nM.
The same measure, in the same setting: the figure for B11 is 1.9 nM.

The next assay concerns the target T2, GST-HttExon1Q21 (recombinant huntingtin …). The assay is described as follows: ELISA. This is another data set of the same source.
Target sequence in this assay (P08515 1-218, tags or fused parts left off): as above
Consider B9, for which the EC50 worked out at 0.04 nM.
The same measure, in the same setting: with B10 the figure was 10.2 nM; with B11, 0.8 nM.
